The text below walks through data of the DeepSol protein solubility set.

This data set is described as follows: soluble on expression in E. coli; label from the status in PepcDB or PDB records.
Regarding “MVELFGAVLLLFGLSDLLFRFLGLGAYAHGSRREPKVALTFDDGPSERTEALLALLARHGVKATFFLTGEKARARPDLVEAIKRAGHQVEDHGEWHRPLWLFLPWVEWRHMAQNPGRYYRPPYGLHTPFTRLFARLLGKRVVLWDLESKDWLNLPPEELAERLLFYLRPGSIVLFHDGPERTLRLLGAGPAGDAPPGVPAHHPGRPRPFAPHPEARPHPGPPGV”, the “soluble on expression in E. coli” value is recorded as “soluble”.
For the sequence “MGSDKIHHHHHHMQVVLRIDEKDTRTLQQQVFHQIRALILEGRLRSGDPVPASRELSQQLGVSRNTVLIAYEHLLSEGYLESRANVGTFVSSALPEMSMSTLTSPANDQPSEPSGQSPAPACMPLLEHSVISPNRKKDTVDFWVGRSDGSAFPAREWRRILDTKLRHAKGQLSEYHDPRGLREFRQALADHIGPTRGVLAKPEDVVCVGGSQDGLALIARAFSRTFRTFIHEDPCYLGARAVFSNFSYDTVAVPVDRDGLRVDLLPETGRSLLYVTPSHQYPTGVTLSLERRLQLLQWAERTDSIVIEDDYDGDFRYEGTPLTALRGLDRAGRVIYLGTFSKSFGPAIRIGYLVSTAELSDAFAMWKGILSNGQPWLEQAAMADFITGGSFRRHLRRIRSTYMARRDLLARELTTRIPGTSIHGMRGGMHISARLPKGICAETLQKAAAEHRIAIYRARDCGAWLSPSNTDFDDLLVLGYAAVSDRNIRKAVDVLAHAAEQQSG”, the “soluble on expression in E. coli” value is given as “not soluble”.
As for “MAHHHHHHMSIIHYSLQYNCKSFCIFTYFLIPSYWKCSTYNIPQYRSQNKNNFISFCIQFLVQQCVLIIHKVFNLPNTSLRNYFPQINKQINNQTFLNVVVKRKLNHGKLWGAHV”, the entry is “soluble”; as for “MMKRNILAVIVPALLVAGTANAAEIYNKDGNKVDLYGKAVGLHYFSKGNGENSYGGNGDMTYARLGFKGETQINSDLTGYGQWEYNFQGNNSEGADAQTGNKTRLAFAGLKYADVGSFDYGRNYGVVYDALGYTDMLPEFGGDTAYSDDFFVGRVGGVATYRNSNFFGLVDGLNFAVQYLGKNERDTARRSNGDGVGGSISYEYEGFGIVGAYGAADRTNLQEAQPLGNGKKAEQWATGLKYDANNIYLAANYGETRNATPITNKFTNTSGFANKTQDVLLVAQYQFDFGLRPSIAYTKSKAKDVEGIGDVDLVNYFEVGATYYFNKNMSTYVDYIINQIDSDNKLGVGSDDTVAVGIVYQF”, “soluble”.
With “MSLKDICLKVFGDYACFTRPEMKVERVSYDIITPSAARAIFEAILWKPAIRWRVTKIEVLKPIRWISVRRNEVGAVASVRTAQTAMQAGRGDLGLYIEEERQQRAGLFLREVAYRLHARCEPTDRKGEQESPDKFLAMFHRRATNGQCFNQPYLGCREFAAHFEPVTNLDAAMADEPPITETRDLGWMLHDIDFANGIQPKFFRAHMQQGVIRVPEWNSEGVKGEGHHHHHH”, the “soluble on expression in E. coli” value is on record as “soluble”.
Regarding “MSNDQIWDLLGHQIQIELDTGDVRRQESTTGHLMTRDPVSQSLLIAKIEENSTSIKSIEWIPSCSVKSIRKLKNTENPEIHVAIEKYFENDGIEGGSSGAEDSEEDIKKRAHRVVNYLKSHHLDVVEKPNGTYIIAGTVRFERPYHNANLYCDIPIVLKRILKLVEEI”, the “soluble on expression in E. coli” value is given as “not soluble”.
Regarding “KERIIGDLSQPVAVRVRTLIQQMTLAEKVAQLVSESDSIPRLNLPAYNYWNECLHGVARAGEVTVFPQAINLASTWDTVLVKRVASAISTEARLKYLEIGKGLTYWSPTINMARDPRWGRNEETYGEDPHLTSRLGVAFVKGLQGDHPTYLKTVATIKHFVANNEENNRFSSSSQIPTKQLYEYYFPAYEACVKEANAQSVMTAYNAFNGVPPSGSHWLLDDVLRKEWGFDGFVVSDCGAIGVMNWQHRVVNSLEEAAALGVNSGCDLECGTTYKEKLVQAVEQGLISEAAIDRALTRVLTARFKLGEFDPMELVPYNHYDKKLLA”, the “soluble on expression in E. coli” value was “not soluble”.
With “MGSDKIHHHHHHMKSIEELYKRALELKNKGMSDKEISTELHLSVNTVTWLLSKEFLKEGAVQDVKIGWRSVGVFGSRIISIAEIMSDIIREEMNKNSFEVDSILGIAINGIPYATLVSYLMDKELIVYRPHPARKEGVFSSNFASVEGKRVVIIDDVASTGETMRRTITDVTKEGGKPVLCVLLASKMSVNDLNGVPVRSLIRTQVIGGS”, the “soluble on expression in E. coli” value is recorded as “not soluble”.
For the sequence “MLARLVLGTSGRAALGSVEPALGGLKSIWRCSQAFCSTPKGVTYRELKSLLNSKDIMLIDVRNTLEILEQGKIPGSINIPLDEVGEALQMNPVDFKEKYCQVKPSKSDRLVFSCLAGVRSKKAMDTAISLGFNSAQHYAGGWKEWVTYEISEEKQES”, the “soluble on expression in E. coli” value was “soluble”.
Regarding “MSLELKVHETILEVNLGAMVANLNHYRSMLKPETKMVCMVKASAYGAGSYEIAKTLQEHHADYLAVAVADEGSDLRKAGITASIIIMDPELTAFKTMFDYKLEPEVYNFHLLDALIKAAEKEGITNFPIHVKLDTGMHRLGFEEKDIPQLIRRLKNQNALIPRSVFSHFVGSDSAQFDAFTRQQIERYEKMSKELQDAFPHKILRHICNTAGIERFPGAQFDMVRLGIGLYGISPIDNSIINNVSTLKTTILQIRDVAEEDTVGYSRKGHLIRPSRIAAIPIGYADGLNRHLGCGHGYCLVNGKKAPYVGNICMDVCMIDVTDIDCREGDQAIIFGDELPITALSDALETIPYEVLTGISTRVKRVYYQDEGHHHHHH”, the “soluble on expression in E. coli” value was “soluble”.
As for “MGELFLVGMGPGDLPGLTQRAREALEGAEVVIGYSTYVKLLEEMGLLAGKEVVRKGMTEELDRAEEALERALSGQRVALVSGGDPGIYGMAAPVLELMEERGLKRVDGGVGLPGRFAGEEGEVFLAVIPGVTAANAVASLLESPLAHDTCLISLSDLLTPWPLIERRLHAAGQGDFVVVLYNPQSKRRDWQLRKSAEILLEYRPKETPAALVKSAYRKRQEVALTTLEGLREAEAGMLTTVVIGNRQSRFYEGTFLTPRGYALKYDLDTKEALPGETPGLSLVSPEGASSGRRDA”, the “soluble on expression in E. coli” value is reported as “soluble”.
Consider “MQEAVNSALPGDVIIVKPGSYYDHVTVTTNNLVIRSESGNPEDTVIEGYNPTADVFTIEADNITLEGFTIMGAGANCSGLCLHGCTNCLIDSNTFFNDFRGIYLKSSLNNDILNNIVIKGGRGISIEESNHNSVSKNKVSECGYGINLLNSKDNRISKNTVAGNKDYGILVQSSDSNTFSRNNASENGRGIHIGNSDGNTLSNNKISLNEVHGLFVCPKSDKNLVYNNYFSNTLNVEANNGTSNVYHKSRTKGENIVGGPYIGGNYWATPEGSGFSETAADNNGDGIADEKYLFETSDYFDPLPLIAYKPPEPVLPTANLSINTPEDYAPLSVQFTDLSENATSRTWDFENDGVIDSPDETPVYTYPSPGTYTVNLTAACENGTDTKLITINVGENNVAEIQPESAPGEESMSTTGSQAEQNSEQEGISSIPGFEMLYGIFCLLAIFLYKESTKLEHHHHHH”, for which the “soluble on expression in E. coli” value is given as “not soluble”.
Regarding “MGESHAPSKPKLDGELCLRPSSSVFLGDQQLYFTQEYLRTNSLNLKYVVYFTACQFSGPIAVAYSPRPASWYIWIRTISGRILKRDMAFNEPVFMEWTRAHCLLVLNKAGRAHIFSSLGEKISEVIFDSQMSDVHECRTFATSRGDSGIAVMDVDGQVSVVNSVSEPVIWSMKPPYSEMPTAWTAFQPHSQLTHILLIFEAVFLMGCQGESLREQSHAASWVDSNTKYVKCVVDDARSRIAMMTESGKIQIVSIDLSTCFCTVEITDHDIAKCINFGWVGNSAVFVQMSPSLIVFVNVSARRKPGDEVQIYEKMTANAKISIEPDGIRLFESTQVEFVEAASREKIAVLNRNPNEDGAHLYKAAQEMSQGTGHNSFAASTVIQDLYKAIDDCISTACDTWQPEEQKLLLKAARFGMAYTNTTPDTTKLMRAIKEIRVLNELRMVRTGIPLTHRQFRAIGETCVINRLIDMGSYSVAIKVAQWLGGETSENVDRVLLEWVRRSISKVSKSNMKMDQPALEALDEKISAKLLQFPHVSIADAARRAIEAKLPELARLFIRRETDDANHVAVLLQLNDVSAALQKASASQRPQLIHQVVRHLMNSESRSSYELAISRIPLAQCLYQDLVRQEGETRGASSRQMLALLEQASDFERQTLFHFDVAETERNPDERLNALRRAKDAAKSMGDKAIEEILNDVSAFAPLQIQRGQADMSVRDTVIEMAHDTAKVAQLKQQARLTDKQVLLWTIEGLAKKGKMEQLFDLAQKRSPIGYAPFVKACVRYKRLDEIKKYFAKVNGYPDLVAAHLAMKNYVEAAKLAYDRRDRDVLHAVHMKSHEDPTQCPRVGQFLRSLDQN”, the “soluble on expression in E. coli” value is recorded as “not soluble”.
